According to patent publication US20210071139A1:

Key:
Experiment in all cases: anti-TOX IP from EL4 nuclear extract, LC-MS/MS, MiST
Trim21 = Trim21 (UniProt Q62191)
Ogdh = Ogdh (UniProt Q60597)
Ash2l = Ash2l (UniProt Q91X20)
Gm10094; Sap18 = target: Gm10094; Sap18
Tagln2 = Tagln2 (UniProt Q9WVA4)
Rrp1b = Rrp1b (UniProt Q91YK2)
Eif4g2 = Eif4g2 (UniProt Q62448)
Zfr = Zfr (UniProt O88532)
Terf2ip = Terf2ip (UniProt Q91VL8)
Snx9 = Snx9 (UniProt Q91VH2)
Trip12 = Trip12 (UniProt G5E870)
Dido1 = Dido1 (UniProt Q8C9B9)
Larp7 = Larp7 (UniProt Q05CL8)
Chain of Larp7 (Q05CL8 whole entry): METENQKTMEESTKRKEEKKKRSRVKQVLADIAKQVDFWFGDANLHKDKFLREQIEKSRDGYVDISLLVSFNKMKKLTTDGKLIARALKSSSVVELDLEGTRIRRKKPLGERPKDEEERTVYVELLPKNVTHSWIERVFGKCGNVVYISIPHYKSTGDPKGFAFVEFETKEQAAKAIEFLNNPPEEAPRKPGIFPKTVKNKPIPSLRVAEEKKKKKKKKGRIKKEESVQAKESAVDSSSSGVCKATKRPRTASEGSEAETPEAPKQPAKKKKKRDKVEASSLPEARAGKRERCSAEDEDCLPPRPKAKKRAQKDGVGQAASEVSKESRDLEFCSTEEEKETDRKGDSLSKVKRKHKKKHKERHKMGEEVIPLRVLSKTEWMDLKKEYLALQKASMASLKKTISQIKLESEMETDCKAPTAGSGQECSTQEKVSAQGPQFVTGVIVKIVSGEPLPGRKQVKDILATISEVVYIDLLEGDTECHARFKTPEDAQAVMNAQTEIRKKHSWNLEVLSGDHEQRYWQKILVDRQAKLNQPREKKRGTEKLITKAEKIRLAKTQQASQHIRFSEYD

Rif1 = Rif1 (UniProt Q6PR54)
Chtop = Chtop (UniProt Q9CY57)
Myo6 = Myo6 (UniProt Q64331)
Pdlim1 = Pdlim1 (UniProt O70400)
Sltm = Sltm (UniProt Q8CH25)
Chain of Sltm (Q8CH25 2-1031 limits assumed): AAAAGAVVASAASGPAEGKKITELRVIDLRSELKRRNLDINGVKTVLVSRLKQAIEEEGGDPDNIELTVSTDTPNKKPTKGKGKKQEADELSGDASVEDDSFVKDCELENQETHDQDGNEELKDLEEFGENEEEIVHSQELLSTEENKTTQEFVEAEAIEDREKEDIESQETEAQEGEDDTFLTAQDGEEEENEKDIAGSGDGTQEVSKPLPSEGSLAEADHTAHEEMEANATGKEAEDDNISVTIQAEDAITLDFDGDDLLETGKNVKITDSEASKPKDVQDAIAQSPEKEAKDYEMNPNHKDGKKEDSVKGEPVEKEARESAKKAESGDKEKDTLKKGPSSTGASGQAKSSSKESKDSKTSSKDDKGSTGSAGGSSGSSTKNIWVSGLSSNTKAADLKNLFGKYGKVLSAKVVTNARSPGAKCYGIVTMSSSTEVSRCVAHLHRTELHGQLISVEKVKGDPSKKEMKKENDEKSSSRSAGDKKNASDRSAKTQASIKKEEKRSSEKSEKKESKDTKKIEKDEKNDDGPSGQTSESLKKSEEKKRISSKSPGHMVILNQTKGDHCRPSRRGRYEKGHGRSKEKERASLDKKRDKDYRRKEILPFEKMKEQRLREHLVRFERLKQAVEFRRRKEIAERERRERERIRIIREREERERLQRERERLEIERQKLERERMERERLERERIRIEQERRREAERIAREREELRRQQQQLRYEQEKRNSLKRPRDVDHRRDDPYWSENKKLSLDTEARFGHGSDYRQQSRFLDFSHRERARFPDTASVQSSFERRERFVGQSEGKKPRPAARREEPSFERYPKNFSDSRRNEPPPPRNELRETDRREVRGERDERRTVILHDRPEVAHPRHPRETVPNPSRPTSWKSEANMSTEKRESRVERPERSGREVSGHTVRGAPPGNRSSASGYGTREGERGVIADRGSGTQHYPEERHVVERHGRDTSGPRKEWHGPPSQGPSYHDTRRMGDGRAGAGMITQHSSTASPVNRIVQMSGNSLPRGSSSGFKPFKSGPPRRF

Ptcd3 = Ptcd3 (UniProt Q14C51)
Rpl36a = Rpl36a (UniProt P83882)
Cd2ap = Cd2ap (UniProt Q9JLQ0)
Chain of Cd2ap (Q9JLQ0 whole entry): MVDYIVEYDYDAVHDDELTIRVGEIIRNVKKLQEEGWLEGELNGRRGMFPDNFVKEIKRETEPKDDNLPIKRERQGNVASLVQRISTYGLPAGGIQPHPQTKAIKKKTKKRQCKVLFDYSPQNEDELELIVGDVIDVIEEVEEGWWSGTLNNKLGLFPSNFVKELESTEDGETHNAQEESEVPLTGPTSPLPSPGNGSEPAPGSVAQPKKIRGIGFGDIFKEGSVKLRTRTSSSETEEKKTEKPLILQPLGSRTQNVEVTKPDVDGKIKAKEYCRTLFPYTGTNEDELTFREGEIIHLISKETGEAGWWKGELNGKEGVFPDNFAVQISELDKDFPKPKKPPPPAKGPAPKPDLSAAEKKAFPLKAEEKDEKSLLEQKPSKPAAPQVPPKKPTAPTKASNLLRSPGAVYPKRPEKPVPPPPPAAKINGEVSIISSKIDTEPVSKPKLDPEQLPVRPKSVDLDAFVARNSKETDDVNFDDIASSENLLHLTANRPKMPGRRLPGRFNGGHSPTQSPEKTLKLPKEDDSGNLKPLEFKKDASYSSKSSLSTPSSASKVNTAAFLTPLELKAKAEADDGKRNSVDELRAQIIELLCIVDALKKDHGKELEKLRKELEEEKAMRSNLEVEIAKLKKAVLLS

Anln = Anln (UniProt Q8K298)
Dhx30 = Dhx30 (UniProt Q99PU8)
Utp18 = Utp18 (UniProt Q5SSI6)
Snrpb2 = Snrpb2 (UniProt Q9CQI7)
Chain of Snrpb2 (Q9CQI7 whole entry): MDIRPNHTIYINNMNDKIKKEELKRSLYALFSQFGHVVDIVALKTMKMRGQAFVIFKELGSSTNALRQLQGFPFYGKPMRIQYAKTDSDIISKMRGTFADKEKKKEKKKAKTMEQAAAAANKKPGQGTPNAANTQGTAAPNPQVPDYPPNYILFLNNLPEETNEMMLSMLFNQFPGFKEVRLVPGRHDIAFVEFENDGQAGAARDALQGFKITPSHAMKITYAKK

Chain of TOX (Q66JW3 whole entry): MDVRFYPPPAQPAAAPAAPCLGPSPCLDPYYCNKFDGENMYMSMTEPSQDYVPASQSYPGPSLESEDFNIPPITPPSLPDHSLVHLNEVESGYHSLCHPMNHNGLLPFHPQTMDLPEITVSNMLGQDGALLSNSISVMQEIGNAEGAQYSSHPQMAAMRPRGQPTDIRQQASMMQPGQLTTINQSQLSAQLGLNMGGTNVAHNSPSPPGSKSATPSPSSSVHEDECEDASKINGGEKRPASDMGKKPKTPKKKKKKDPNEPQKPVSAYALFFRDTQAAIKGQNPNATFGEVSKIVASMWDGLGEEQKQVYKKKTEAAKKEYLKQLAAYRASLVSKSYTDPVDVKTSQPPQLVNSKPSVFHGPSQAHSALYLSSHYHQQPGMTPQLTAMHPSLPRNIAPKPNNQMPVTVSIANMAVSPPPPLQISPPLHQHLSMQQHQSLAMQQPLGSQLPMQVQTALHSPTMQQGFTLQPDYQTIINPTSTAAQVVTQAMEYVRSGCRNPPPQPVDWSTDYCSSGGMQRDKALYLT
Chain of Zfr (O88532 whole entry): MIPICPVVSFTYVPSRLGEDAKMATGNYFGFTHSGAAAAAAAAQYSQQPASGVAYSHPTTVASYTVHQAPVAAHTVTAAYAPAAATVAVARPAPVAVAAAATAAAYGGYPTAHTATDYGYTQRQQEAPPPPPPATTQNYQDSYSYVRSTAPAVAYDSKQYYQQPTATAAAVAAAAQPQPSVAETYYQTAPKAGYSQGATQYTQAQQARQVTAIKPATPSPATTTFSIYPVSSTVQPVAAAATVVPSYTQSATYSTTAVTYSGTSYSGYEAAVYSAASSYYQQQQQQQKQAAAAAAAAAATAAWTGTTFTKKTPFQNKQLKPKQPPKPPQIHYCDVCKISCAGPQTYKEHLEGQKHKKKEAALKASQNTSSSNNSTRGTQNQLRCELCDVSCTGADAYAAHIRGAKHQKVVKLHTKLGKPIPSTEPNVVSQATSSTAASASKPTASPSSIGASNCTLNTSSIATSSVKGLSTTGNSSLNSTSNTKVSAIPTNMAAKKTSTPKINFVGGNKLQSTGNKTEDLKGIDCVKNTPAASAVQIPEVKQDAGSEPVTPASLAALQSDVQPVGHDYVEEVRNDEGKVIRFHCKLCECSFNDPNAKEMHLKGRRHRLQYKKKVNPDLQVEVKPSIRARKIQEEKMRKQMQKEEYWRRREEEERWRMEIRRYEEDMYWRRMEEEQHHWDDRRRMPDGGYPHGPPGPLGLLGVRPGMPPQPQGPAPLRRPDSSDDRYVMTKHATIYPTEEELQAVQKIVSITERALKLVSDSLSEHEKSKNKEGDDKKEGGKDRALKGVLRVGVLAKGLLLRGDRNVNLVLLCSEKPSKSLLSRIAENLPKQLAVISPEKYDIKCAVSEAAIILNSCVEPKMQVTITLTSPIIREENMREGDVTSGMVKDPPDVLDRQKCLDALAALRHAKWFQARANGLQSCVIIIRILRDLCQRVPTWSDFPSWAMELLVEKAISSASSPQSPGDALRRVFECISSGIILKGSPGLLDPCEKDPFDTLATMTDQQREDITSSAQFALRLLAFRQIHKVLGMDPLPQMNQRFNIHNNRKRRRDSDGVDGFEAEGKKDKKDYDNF
Chain of Ogdh (Q60597 41-1023 limits assumed): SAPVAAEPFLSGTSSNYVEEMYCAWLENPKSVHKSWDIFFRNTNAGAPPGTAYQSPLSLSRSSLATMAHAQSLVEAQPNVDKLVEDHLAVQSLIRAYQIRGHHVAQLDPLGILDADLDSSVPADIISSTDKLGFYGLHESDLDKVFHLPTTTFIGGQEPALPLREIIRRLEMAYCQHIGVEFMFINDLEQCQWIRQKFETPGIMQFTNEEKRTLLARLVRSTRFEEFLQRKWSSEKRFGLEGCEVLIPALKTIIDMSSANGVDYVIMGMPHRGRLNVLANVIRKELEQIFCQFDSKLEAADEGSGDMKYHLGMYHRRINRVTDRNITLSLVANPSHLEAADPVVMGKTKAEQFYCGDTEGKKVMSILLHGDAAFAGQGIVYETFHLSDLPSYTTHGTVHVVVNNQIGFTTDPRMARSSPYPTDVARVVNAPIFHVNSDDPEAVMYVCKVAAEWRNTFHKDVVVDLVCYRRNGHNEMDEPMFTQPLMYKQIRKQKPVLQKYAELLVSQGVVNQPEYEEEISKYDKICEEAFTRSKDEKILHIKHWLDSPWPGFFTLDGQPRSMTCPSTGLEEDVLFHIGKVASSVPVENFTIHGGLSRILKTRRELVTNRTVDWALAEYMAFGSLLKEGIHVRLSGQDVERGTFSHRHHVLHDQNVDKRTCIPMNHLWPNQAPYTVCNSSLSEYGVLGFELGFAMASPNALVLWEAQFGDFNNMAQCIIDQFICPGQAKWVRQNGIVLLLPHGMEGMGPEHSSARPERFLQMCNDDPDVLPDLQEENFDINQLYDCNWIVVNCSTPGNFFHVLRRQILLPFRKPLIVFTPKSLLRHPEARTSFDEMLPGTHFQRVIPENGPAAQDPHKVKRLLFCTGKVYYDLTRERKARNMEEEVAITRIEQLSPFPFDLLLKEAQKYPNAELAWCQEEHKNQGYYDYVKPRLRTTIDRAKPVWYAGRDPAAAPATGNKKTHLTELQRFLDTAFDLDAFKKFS

Substance: TOX (from UniProt Q66JW3 1-526)
- Abundance (Trim21): 4.56e-06
- MiST Score (Trim21): 0.858
- Reproducibility (Trim21): 0.56
- Specificity (Trim21): 1
- Abundance (Ogdh): 1.34e-05
- MiST Score (Ogdh): 0.88
- Reproducibility (Ogdh): 0.851
- Specificity (Ogdh): 0.902
- Abundance (Ash2l): 4.44e-06
- MiST Score (Ash2l): 0.879
- Reproducibility (Ash2l): 0.629
- Specificity (Ash2l): 1
- Abundance (Gm10094; Sap18): 2.26e-05
- MiST Score (Gm10094; Sap18): 0.878
- Reproducibility (Gm10094; Sap18): 0.625
- Specificity (Gm10094; Sap18): 1
- Abundance (Tagln2): 1.75e-05
- MiST Score (Tagln2): 0.875
- Reproducibility (Tagln2): 0.616
- Specificity (Tagln2): 1
- Abundance (Rrp1b): 4.86e-06
- MiST Score (Rrp1b): 0.875
- Reproducibility (Rrp1b): 0.955
- Specificity (Rrp1b): 0.847
- Abundance (Eif4g2): 4.84e-06
- MiST Score (Eif4g2): 0.866
- Reproducibility (Eif4g2): 0.887
- Specificity (Eif4g2): 0.864
- Abundance (Zfr): 2.44e-06
- MiST Score (Zfr): 0.866
- Reproducibility (Zfr): 0.991
- Specificity (Zfr): 0.817
- Abundance (Terf2ip): 2.33e-05
- MiST Score (Terf2ip): 0.869
- Reproducibility (Terf2ip): 0.595
- Specificity (Terf2ip): 1
- Abundance (Snx9): 5.29e-06
- MiST Score (Snx9): 0.877
- Reproducibility (Snx9): 0.621
- Specificity (Snx9): 1
- Abundance (Trip12): 1.4e-06
- MiST Score (Trip12): 0.866
- Reproducibility (Trip12): 0.585
- Specificity (Trip12): 1
- Abundance (Dido1): 3.41e-07
- MiST Score (Dido1): 0.878
- Reproducibility (Dido1): 0.624
- Specificity (Dido1): 1
- Abundance (Larp7): 9.12e-06
- MiST Score (Larp7): 0.859
- Reproducibility (Larp7): 0.896
- Specificity (Larp7): 0.849
- Abundance (Rif1): 1.07e-07
- MiST Score (Rif1): 0.874
- Reproducibility (Rif1): 0.611
- Specificity (Rif1): 1
- Abundance (Chtop): 0.000479
- MiST Score (Chtop): 0.862
- Reproducibility (Chtop): 0.936
- Specificity (Chtop): 0.837
- Abundance (Myo6): 5.25e-07
- MiST Score (Myo6): 0.88
- Reproducibility (Myo6): 0.63
- Specificity (Myo6): 1
- Abundance (Pdlim1): 1.21e-05
- MiST Score (Pdlim1): 0.858
- Reproducibility (Pdlim1): 0.559
- Specificity (Pdlim1): 1
- Abundance (Sltm): 2.12e-06
- MiST Score (Sltm): 0.864
- Reproducibility (Sltm): 0.988
- Specificity (Sltm): 0.816
- Abundance (Ptcd3): 1.85e-06
- MiST Score (Ptcd3): 0.88
- Reproducibility (Ptcd3): 0.631
- Specificity (Ptcd3): 1
- Abundance (Rpl36a): 0.000923
- MiST Score (Rpl36a): 0.895
- Reproducibility (Rpl36a): 0.679
- Specificity (Rpl36a): 1
- Abundance (Cd2ap): 5.85e-07
- MiST Score (Cd2ap): 0.879
- Reproducibility (Cd2ap): 0.628
- Specificity (Cd2ap): 1
- Abundance (Anln): 4.57e-07
- MiST Score (Anln): 0.861
- Reproducibility (Anln): 0.567
- Specificity (Anln): 1
- Abundance (Dhx30): 2.07e-06
- MiST Score (Dhx30): 0.89
- Reproducibility (Dhx30): 0.892
- Specificity (Dhx30): 0.897
- Abundance (Utp18): 1.83e-05
- MiST Score (Utp18): 0.865
- Reproducibility (Utp18): 0.582
- Specificity (Utp18): 1
- Abundance (Snrpb2): 7.46e-05
- MiST Score (Snrpb2): 0.858
- Reproducibility (Snrpb2): 0.558
- Specificity (Snrpb2): 1
